{
  "source": "patent US20230265198A1",
  "about": "(TWIST BIOSCIENCE, published 2023)",
  "binders": {"B1": {"name": "NRP1-1 (VHH)", "VHH": "EVQLVESGGGLVQPGGSLRLSCAASGRTFRRYAMGWFRQAPGKEREFVASISRSGTLTRYADSVKGRFTISADNSKNTAYLQMNSLKPEDTAVYYCAAKTGAFSYGSLWWMSRAYNWGQGTLVTVSS"}, "B2": {"name": "NRP1-96 (VHH)", "VHH": "EVQLVESGGGLVQPGGSLRLSCAASGLTYTMSWFRQAPGKEREFVAGFSGSGSVTSYADSVKGRFTISADNSKNTAYLQMNSLKPEDTAVYYCAAFDGYSGSDWGQGTLVTVSS"}, "B3": {"name": "NRP1-85 (VHH)", "VHH": "EVQLVESGGGLVQPGGSLRLSCAASGSRFSGRFNILNMGWFRQAPGKERESVAAINWSGGTSTYYADSVKGRFTISADNSKNTAYLQMNSLKPEDTAVYYCAAGSNIGGSRWRYDWGQGTLVTVSS"}, "B4": {"name": "NRP1-87 (VHH)", "VHH": "EVQLVESGGGLVQPGGSLRLSCAASGRIFTMGWFRQAPGKEREFVASITTDGNTLYADSVKGRFTISADNSKNTAYLQMNSLKPEDTAVYYCARWVGASAYHYGMDVWGQGTLVTVSS"}, "B5": {"name": "NRP1-71 (VHH)", "VHH": "EVQLVESGGGLVQPGGSLRLSCAASGRTFSNAAMGWFRQAPGKERELVARITPGGNTNYADSVKGRFTISADNSKNTAYLQMNSLKPEDTAVYYCAARRIVNVEGAYRDWGQGTLVTVSS"}, "B6": {"name": "NRP1-46 (VHH)", "VHH": "B5 VHH with R27F, S30R, A32F, A33G, L47I, T52S, G54S, N58Y"}, "B7": {"name": "NRP1-100 (VHH)", "VHH": "B5 VHH with T28S, F29V, N31T, A32Y, A33G, R50S, T52S, P53R, G54F, N56R"}, "B8": {"name": "NRP1-65 (VHH)", "VHH": "B5 VHH with F29I, L47W, R50A, P53S, N56Y, N58H"}, "B9": {"name": "NRP1-77 (VHH)", "VHH": "B5 VHH with T28I, S30I, A32N, T52S, G54A, N56S, N58Y"}, "B10": {"name": "NRP1-48 (VHH)", "VHH": "B5 VHH with R27F, S30R, A32F, A33G, P53G, N56S, N58A"}, "B11": {"name": "NRP1-59 (VHH)", "VHH": "B5 VHH with F29I, R50S, T52S, P53R, G54F, N56R"}, "B12": {"name": "NRP1-51 (VHH)", "VHH": "B5 VHH with R27F, T28A, A32Y, A33H"}, "B13": {"name": "NRP1-78 (VHH)", "VHH": "EVQLVESGGGLVQPGGSLRLSCAASGRTFRSYPMGWFRQAPGKEREWVASITSSATAYADSVKGRFTISADNSKNTAYLQMNSLKPEDTAVYYCALGPVRRSRLEWGQGTLVTVSS"}, "B14": {"name": "NRP1-89 (VHH)", "VHH": "EVQLVESGGGLVQPGGSLRLSCAASGINFSRYGMGWFRQAPGKEREWVSAISSGGGSITTYADSVKGRFTISADNSKNTAYLQMNSLKPEDTAVYYCARHNSGWHFDYWGQGTLVTVSS"}, "B15": {"name": "NRP1-7 (VHH)", "VHH": "EVQLVESGGGLVQPGGSLRLSCAASGRIFIIYAMGWFRQAPGKERELVAAITRTGGRPCYADSVKGRFTISADNSKNTAYLQMNSLKPEDTAVYYCAARRMLSPEGAHPDWGQGTLVTVSS"}, "B16": {"name": "NRP1-93 (VHH)", "VHH": "EVQLVESGGGLVQPGGSLRLSCAASGIPFRSRTMGWFRQAPGKEREFVATINTGGGTYADSVKGRFTISADNSKNTAYLQMNSLKPEDTAVYYCARHGDTYYYGSGTVRSLDYWGQGTLVTVSS"}, "B17": {"name": "NRP1-88 (VHH)", "VHH": "EVQLVESGGGLVQPGGSLRLSCAASGGIFSRYDMGWFRQAPGKEREFVATITSTGDTYADSVKGRFTISADNSKNTAYLQMNSLKPEDTAVYYCARLGGNSEYYYYYGMDVWGQGTLVTVSS"}, "B18": {"name": "NRP1-37 (VHH)", "VHH": "EVQLVESGGGLVQPGGSLRLSCAASGRTFSIYAMGWFRQAPGKERELVAAISRTGGSTYYADSVKGRFTISADNSKNTAYLQMNSLKPEDTAVYYCAADRMYRPVGNQYDWGQGTLVTVSS"}, "B19": {"name": "NRP1-47 (VHH)", "VHH": "B18 VHH with T28S, F29S, S30R, I31Y, L47F, S52K, R53W, T54S, G56T"}, "B20": {"name": "NRP1-86 (VHH)", "VHH": "EVQLVESGGGLVQPGGSLRLSCAASGNIFINNAMGWFRQAPGKERELVAAITSSSGRRWYADSVKGRFTISADNSKNTAYLQMNSLKPEDTAVYYCAADRMYRPVGNQYDWGQGTLVTVSS"}, "B21": {"name": "NRP1-114 (VHH)", "VHH": "B18 VHH with T28S, F29S, S30R, I31Y, L47F, S52R, R53W, T54S, S57T, Y59F"}, "B22": {"name": "NRP1-81 (VHH)", "VHH": "B18 VHH with T28S, F29S, S30R, I31Y, L47F, S52R, R53W, G56M, S57N, Y59H"}, "B23": {"name": "NRP1-75 (VHH)", "VHH": "B18 VHH with F29I, I31V, S52N, T54S, G56K"}, "B24": {"name": "NRP1-106 (VHH)", "VHH": "B18 VHH with D99R, M101I, Y102V, R103N, P104V, V105E, N107A, Q108Y, Y109R"}, "B25": {"name": "NRP1-99 (VHH)", "VHH": "B18 VHH with F29S, S30N, L47F, T54S, S57L, T58K, Y59S"}, "B26": {"name": "NRP1-79 (VHH)", "VHH": "EVQLVESGGGLVQPGGSLRLSCAASGRTYYAMGWFRQAPGKEREFVAAISWGGGLTVYADSVKGRFTISADNSKNTAYLQMNSLKPEDTAVYYCASSGWLTDYYYAMDVWGQGTLVTVSS"}, "B27": {"name": "NRP1-17 (VHH)", "VHH": "EVQLVESGGGLVQPGGSLRLSCAASGRFSRINSMGWFRQAPGKERELVAAIMWSGGSTKYADSVKGRFTISADNSKNTAYLQMNSLKPEDTAVYYCAAGSPSRLVNMWQYNWGQGTLVTVSS"}, "B28": {"name": "NRP1-91 (VHH)", "VHH": "EVQLVESGGGLVQPGGSLRLSCAASGNIFINNAMGWFRQAPGKERELVAAITSSSGRRWYADSVKGRFTISADNSKNTAYLQMNSLKPEDTAVYYCAAGSPSRLVNMWQYNWGQGTLVTVSS"}, "B29": {"name": "NRP1-41 (VHH)", "VHH": "B27 VHH with L47S, M52S, S54N, T58I, K59Y"}, "B30": {"name": "NRP1-80 (VHH)", "VHH": "EVQLVESGGGLVQPGGSLRLSCAASGSIDRINAMGWFRQAPGKEREFVASIWWTFDAPYYADSVKGRFTISADNSKNTAYLQMNSLKPEDTAVYYCATWTTTWGRNRDWGQGTLVTVSS"}, "B31": {"name": "NRP1-92 (VHH)", "VHH": "EVQLVESGGGLVQPGGSLRLSCAASGLLFSSYDMGWFRQAPGKEREFVAAITSGGRKNYADSVKGRFTISADNSKNTAYLQMNSLKPEDTAVYYCARYDYSGGLTFDYWGQGTLVTVSS"}, "B32": {"name": "NRP1-76 (VHH)", "VHH": "EVQLVESGGGLVQPGGSLRLSCAASGITFRRYAMGWFRQAPGKEREIVATIWWTFDAPYYADSVKGRFTISADNSKNTAYLQMNSLKPEDTAVYYCAAYQAGWGDWGQGTLVTVSS"}, "B33": {"name": "NRP1-74 (VHH)", "VHH": "B32 VHH with I27S, F29L, R31D, A33T, I47F"}, "B34": {"name": "NRP1-61 (VHH)", "VHH": "B32 VHH with I27R, R30S, I47W, T50G, W52S, F55G, D56G, A57I, P58T, A101R"}, "B35": {"name": "NRP1-2 (VHH)", "VHH": "B32 VHH with I27G, R30T, R31K, Y32Q, A33T, I47F"}, "B36": {"name": "NRP1-83 (VHH)", "VHH": "B32 VHH with I27S, T28I, F29G, R31E, Y32V, I47L"}, "B37": {"name": "NRP1-72 (VHH)", "VHH": "B32 VHH with I27R, I47F, W52S, T54S, F55G, D56A, A57L, P58T, Y59H, A101R"}, "B38": {"name": "NRP1-90 (VHH)", "VHH": "EVQLVESGGGLVQPGGSLRLSCAASGGIFSINDMGWFRQAPGKEREFVARITSGGSTNYADSVKGRFTISADNSKNTAYLQMNSLKPEDTAVYYCAKADYYDSSDFDSWGQGTLVTVSS"}},
  "note": "Where a chain is given by its changes, count along the chain named.",
  "data": [
    {"molecular_target": "T1, neuropilin-1 (NRP1) on HEK293 cells overexpressing NRP1 (UniProt O14786 22-923, limits assumed)", "T1 construct": "whole, on cells", "assay": "flow cytometry, HEK293-NRP1 vs HEK293", "values": [
      {"binder": "B1", "100 nM FACS (MFI Ratio)": 15.4},
      {"binder": "B2", "100 nM FACS (MFI Ratio)": 1.4},
      {"binder": "B3", "100 nM FACS (MFI Ratio)": 5},
      {"binder": "B4", "100 nM FACS (MFI Ratio)": 3.7},
      {"binder": "B5", "100 nM FACS (MFI Ratio)": 0.4},
      {"binder": "B6", "100 nM FACS (MFI Ratio)": 2.2},
      {"binder": "B7", "100 nM FACS (MFI Ratio)": 0.6},
      {"binder": "B8", "100 nM FACS (MFI Ratio)": 0.7},
      {"binder": "B9", "100 nM FACS (MFI Ratio)": 4.9},
      {"binder": "B10", "100 nM FACS (MFI Ratio)": 0.7},
      {"binder": "B11", "100 nM FACS (MFI Ratio)": 0.4},
      {"binder": "B12", "100 nM FACS (MFI Ratio)": 0.8},
      {"binder": "B13", "100 nM FACS (MFI Ratio)": 3.6},
      {"binder": "B14", "100 nM FACS (MFI Ratio)": 1.8},
      {"binder": "B15", "100 nM FACS (MFI Ratio)": 233},
      {"binder": "B16", "100 nM FACS (MFI Ratio)": 1.4},
      {"binder": "B17", "100 nM FACS (MFI Ratio)": 2.8},
      {"binder": "B18", "100 nM FACS (MFI Ratio)": 8.8},
      {"binder": "B19", "100 nM FACS (MFI Ratio)": 6.6},
      {"binder": "B20", "100 nM FACS (MFI Ratio)": 2.4},
      {"binder": "B21", "100 nM FACS (MFI Ratio)": 8.7},
      {"binder": "B22", "100 nM FACS (MFI Ratio)": 5},
      {"binder": "B23", "100 nM FACS (MFI Ratio)": 4.2},
      {"binder": "B24", "100 nM FACS (MFI Ratio)": 2.2},
      {"binder": "B25", "100 nM FACS (MFI Ratio)": 0.8},
      {"binder": "B26", "100 nM FACS (MFI Ratio)": 13.2},
      {"binder": "B27", "100 nM FACS (MFI Ratio)": 1960},
      {"binder": "B28", "100 nM FACS (MFI Ratio)": 2.7},
      {"binder": "B29", "100 nM FACS (MFI Ratio)": 6.1},
      {"binder": "B30", "100 nM FACS (MFI Ratio)": 6.9},
      {"binder": "B31", "100 nM FACS (MFI Ratio)": 6},
      {"binder": "B32", "100 nM FACS (MFI Ratio)": 3.1},
      {"binder": "B33", "100 nM FACS (MFI Ratio)": 5.8},
      {"binder": "B34", "100 nM FACS (MFI Ratio)": 0.9},
      {"binder": "B35", "100 nM FACS (MFI Ratio)": 15.7},
      {"binder": "B36", "100 nM FACS (MFI Ratio)": 6.9},
      {"binder": "B37", "100 nM FACS (MFI Ratio)": 3},
      {"binder": "B38", "100 nM FACS (MFI Ratio)": 1}
    ]}
  ]
}
